Source: paper PMC11417369, “DNA sequence and chromatin differentiate sequence-specific transcription factor binding in the human malaria parasite Plasmodium falciparum”

B1: XGTACX_site7381 (dsDNA)
DNA 1: TATCTTTATATATAGTGTACACATTAAACAAATCTC
DNA 2: GAGATTTGTTTAATGTGTACACTATATATAAAGATA
B2: XGTACX_site5322 (dsDNA)
DNA 1: TATATATATATATGTAGTACTTTACAAAATAATTCG
DNA 2: CGAATTATTTTGTAAAGTACTACATATATATATATA
B3: XGTACX_site7594 (dsDNA)
DNA 1: AGACGTAATAATTGTTGTACATAAAAAAATAAGAAA
DNA 2: TTTCTTATTTTTTTATGTACAACAATTATTACGTCT
B4: XGTACX_site8893 (dsDNA)
DNA 1: ATATATATATATATATGTACATATATATTGTTGATC
DNA 2: GATCAACAATATATATGTACATATATATATATATAT
B5: XGTACX_site6785 (dsDNA)
DNA 1: ATATATGGAAAGAGTAGTACTATTATAGGGGTGTTA
DNA 2: TAACACCCCTATAATAGTACTACTCTTTCCATATAT
B6: XGTACX_site366 (dsDNA)
DNA 1: TAATATTTCATTAGGTGTACACTACATAGTAGTAGA
DNA 2: TCTACTACTATGTAGTGTACACCTAATGAAATATTA
B7: XGTACX_site8781 (dsDNA)
DNA 1: TAAATAAATTTGCACTGTACGCAAAAAAAAAAAAGA
DNA 2: TCTTTTTTTTTTTTGCGTACAGTGCAAATTTATTTA
B8: XGTACX_site894 (dsDNA)
DNA 1: AATAATGTTATAAATTGTACGTGTATTATTCATTAC
DNA 2: GTAATGAATAATACACGTACAATTTATAACATTATT
B9: XGTACX_site5884 (dsDNA)
DNA 1: TCAAGTATTAAAATGGGTACATAAATATGTGTATAT
DNA 2: ATATACACATATTTATGTACCCATTTTAATACTTGA
B10: XGTACX_site7234 (dsDNA)
DNA 1: ATTTCCTTTTTCTGTTGTACTCATAAAATAATATGT
DNA 2: ACATATTATTTTATGAGTACAACAGAAAAAGGAAAT
B11: XGTACX_site1288 (dsDNA)
DNA 1: TAAAGAGTCATGTGGTGTACCTGCTTCACCACATAT
DNA 2: ATATGTGGTGAAGCAGGTACACCACATGACTCTTTA
B12: XGTACX_site7939 (dsDNA)
DNA 1: GGATTTTTCGAATCATGTACATATTTAATTAAAAAA
DNA 2: TTTTTTAATTAAATATGTACATGATTCGAAAAATCC
B13: XGTACX_site8481 (dsDNA)
DNA 1: TCAATTTTTTAATGTTGTACTTTGTAAAAAAAAATA
DNA 2: TATTTTTTTTTACAAAGTACAACATTAAAAAATTGA
B14: XGTACX_site3520 (dsDNA)
DNA 1: ATATATATATATATATGTACTTATTTATCGTATTAT
DNA 2: ATAATACGATAAATAAGTACATATATATATATATAT
B15: XGTACX_site3785 (dsDNA)
DNA 1: ATATACATATGTGTGTGTACTTATATCACATTTTTG
DNA 2: CAAAAATGTGATATAAGTACACACACATATGTATAT
B16: XGTACX_site3663 (dsDNA)
DNA 1: TTTTTTTCTTAAAGATGTACTTTTTTAAAATAATCT
DNA 2: AGATTATTTTAAAAAAGTACATCTTTAAGAAAAAAA
B17: XGTACX_site4165 (dsDNA)
DNA 1: TTGTTTTTTTTTGGCTGTACGTTCATAAATTTTTTT
DNA 2: AAAAAAATTTATGAACGTACAGCCAAAAAAAAACAA
B18: XGTACX_site1387 (dsDNA)
DNA 1: AAAAAAAATTATATATGTACTTATTAATCCTTTTAT
DNA 2: ATAAAAGGATTAATAAGTACATATATAATTTTTTTT
B19: XGTACX_site4322 (dsDNA)
DNA 1: TTACGATACTTTAGGTGTACACAAATATACATGAAT
DNA 2: ATTCATGTATATTTGTGTACACCTAAAGTATCGTAA
B20: XGTACX_site1392 (dsDNA)
DNA 1: ATATGTAAAATATGGGGTACGAAGGTAGGTAGGTAA
DNA 2: TTACCTACCTACCTTCGTACCCCATATTTTACATAT
B21: XGTACX_site8545 (dsDNA)
DNA 1: TTACACATGTTTAACTGTACACATAATAGCAATATT
DNA 2: AATATTGCTATTATGTGTACAGTTAAACATGTGTAA
B22: XGTACX_site8237 (dsDNA)
DNA 1: TATAAAAATTAATATTGTACGTTTTATGAAAATAAA
DNA 2: TTTATTTTCATAAAACGTACAATATTAATTTTTATA
B23: XGTACX_site8080 (dsDNA)
DNA 1: AAGCTTAAAAATGGGGGTACGTCATAGGGATTCAAC
DNA 2: GTTGAATCCCTATGACGTACCCCCATTTTTAAGCTT
B24: XGTACX_site3365 (dsDNA)
DNA 1: TATATGGGATATATGTGTACATATAAAATATGTATC
DNA 2: GATACATATTTTATATGTACACATATATCCCATATA
B25: XGTACX_site8830 (dsDNA)
DNA 1: AAATGCTAAAAATAGAGTACAGATAACGAAAAGTGT
DNA 2: ACACTTTTCGTTATCTGTACTCTATTTTTAGCATTT
B26: XGTACX_site2113 (dsDNA)
DNA 1: AAGATAAAATAATAAAGTACACATATAAATTGAAAA
DNA 2: TTTTCAATTTATATGTGTACTTTATTATTTTATCTT
B27: XGTACX_site6588 (dsDNA)
DNA 1: AAAAATTGAATGATGTGTACTTAAAAGAATATAGAA
DNA 2: TTCTATATTCTTTTAAGTACACATCATTCAATTTTT
B28: XGTACX_site17 (dsDNA)
DNA 1: TTTTACAAATATTACTGTACACATTTTCATATAATT
DNA 2: AATTATATGAAAATGTGTACAGTAATATTTGTAAAA
B29: XGTACX_site1944 (dsDNA)
DNA 1: TTCAAAAATATATAATGTACACAAATATAAAAGAAT
DNA 2: ATTCTTTTATATTTGTGTACATTATATATTTTTGAA
B30: XGTACX_site8319 (dsDNA)
DNA 1: AAAAAAATATTAATGTGTACATAATAATAACATATA
DNA 2: TATATGTTATTATTATGTACACATTAATATTTTTTT
B31: XGTACX_site2117 (dsDNA)
DNA 1: TATAATATATGTATATGTACTTATGTTGAGAAACAT
DNA 2: ATGTTTCTCAACATAAGTACATATACATATATTATA
B32: XGTACX_site4379 (dsDNA)
DNA 1: AATTAAATAAATGTATGTACATAATAAATATGTATT
DNA 2: AATACATATTTATTATGTACATACATTTATTTAATT
B33: XGTACX_site4551 (dsDNA)
DNA 1: ATATATATATATATTTGTACTTACATTTTTATTTAT
DNA 2: ATAAATAAAAATGTAAGTACAAATATATATATATAT
B34: XGTACX_site1573 (dsDNA)
DNA 1: TCCATTGTCACCTTTTGTACTTAAATTTTTTCCTCC
DNA 2: GGAGGAAAAAATTTAAGTACAAAAGGTGACAATGGA
B35: XGTACX_site977 (dsDNA)
DNA 1: TTCAAATTGTTTATATGTACTTATAAAAATTGTCTG
DNA 2: CAGACAATTTTTATAAGTACATATAAACAATTTGAA
B36: XGTACX_site1814 (dsDNA)
DNA 1: TTAAGAATATTTTCATGTACTCATTTTTTTTGTTAT
DNA 2: ATAACAAAAAAAATGAGTACATGAAAATATTCTTAA
B37: XGTACX_site1598 (dsDNA)
DNA 1: CTAATAAAAAAAAAAAGTACATATGACAATATAAAG
DNA 2: CTTTATATTGTCATATGTACTTTTTTTTTTTATTAG
B38: XGTACX_site3287 (dsDNA)
DNA 1: TTTTACAATATTTTGTGTACTTATATTATGAGCTTA
DNA 2: TAAGCTCATAATATAAGTACACAAAATATTGTAAAA
B39: XGTACX_site2864 (dsDNA)
DNA 1: CCTATATAATTATAATGTACTTGTAAAAAATATAAC
DNA 2: GTTATATTTTTTACAAGTACATTATAATTATATAGG
B40: XGTACX_site7911 (dsDNA)
DNA 1: TAGCATGATTTGCCTTGTACACAACCGTTTTAATAA
DNA 2: TTATTAAAACGGTTGTGTACAAGGCAAATCATGCTA
B41: XGTACX_site5109 (dsDNA)
DNA 1: TTTTTTTTTTTTTTTGGTACACATTTTGGTTAATGG
DNA 2: CCATTAACCAAAATGTGTACCAAAAAAAAAAAAAAA
B42: XGTACX_site4032 (dsDNA)
DNA 1: TTCATTTTTTATTATAGTACACATAATATTTGCAGA
DNA 2: TCTGCAAATATTATGTGTACTATAATAAAAAATGAA
B43: XGTACX_site2641 (dsDNA)
DNA 1: TATATATATTTAAGGTGTACATAAATAACAAAATAT
DNA 2: ATATTTTGTTATTTATGTACACCTTAAATATATATA

Biological target: T1, AP2-G D1 (Plasmodium falciparum, UniProt Q8I5I9 2123-2245)
T1 sequence: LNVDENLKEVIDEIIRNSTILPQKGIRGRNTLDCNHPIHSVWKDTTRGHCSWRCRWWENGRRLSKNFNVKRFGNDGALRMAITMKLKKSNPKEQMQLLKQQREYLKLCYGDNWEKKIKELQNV
Test: gcPBM; about 25 ug protein; PBS, 1% milk, 0.2 mg/ml BSA, salmon testes DNA, 0.03% Triton X-100
Settings: tags: N-terminal GST (pGEX-4T-1), kept; label: surface-attached array probe

Row | Binder | binding signal
1 | B1 | 12.4 ln median PBM intensity, better of two orientations
2 | B2 | 12.1 ln median PBM intensity, better of two orientations
3 | B3 | 12.1 ln median PBM intensity, better of two orientations
4 | B4 | 11.8 ln median PBM intensity, better of two orientations
5 | B5 | 11.7 ln median PBM intensity, better of two orientations
6 | B6 | 12.2 ln median PBM intensity, better of two orientations
7 | B7 | 12.6 ln median PBM intensity, better of two orientations
8 | B8 | 11.8 ln median PBM intensity, better of two orientations
9 | B9 | 12.1 ln median PBM intensity, better of two orientations
10 | B10 | 12.2 ln median PBM intensity, better of two orientations
11 | B11 | 11.9 ln median PBM intensity, better of two orientations
12 | B12 | 11.8 ln median PBM intensity, better of two orientations
13 | B13 | 11.7 ln median PBM intensity, better of two orientations
14 | B14 | 11.9 ln median PBM intensity, better of two orientations
15 | B15 | 12 ln median PBM intensity, better of two orientations
16 | B16 | 12 ln median PBM intensity, better of two orientations
17 | B17 | 11.9 ln median PBM intensity, better of two orientations
18 | B18 | 12 ln median PBM intensity, better of two orientations
19 | B19 | 12.6 ln median PBM intensity, better of two orientations
20 | B20 | 11.7 ln median PBM intensity, better of two orientations
21 | B21 | 12.2 ln median PBM intensity, better of two orientations
22 | B22 | 11.9 ln median PBM intensity, better of two orientations

Row | Binder | binding signal
23 | B23 | 11.7 ln median PBM intensity, better of two orientations
24 | B24 | 11.8 ln median PBM intensity, better of two orientations
25 | B25 | 12.1 ln median PBM intensity, better of two orientations
26 | B26 | 11.8 ln median PBM intensity, better of two orientations
27 | B27 | 11.8 ln median PBM intensity, better of two orientations
28 | B28 | 12.2 ln median PBM intensity, better of two orientations
29 | B29 | 12 ln median PBM intensity, better of two orientations
30 | B30 | 11.9 ln median PBM intensity, better of two orientations
31 | B31 | 11.7 ln median PBM intensity, better of two orientations
32 | B32 | 11.7 ln median PBM intensity, better of two orientations
33 | B33 | 11.6 ln median PBM intensity, better of two orientations
34 | B34 | 11.9 ln median PBM intensity, better of two orientations
35 | B35 | 11.8 ln median PBM intensity, better of two orientations
36 | B36 | 12 ln median PBM intensity, better of two orientations
37 | B37 | 12.1 ln median PBM intensity, better of two orientations
38 | B38 | 12.2 ln median PBM intensity, better of two orientations
39 | B39 | 11.8 ln median PBM intensity, better of two orientations
40 | B40 | 11.7 ln median PBM intensity, better of two orientations
41 | B41 | 12 ln median PBM intensity, better of two orientations
42 | B42 | 12.3 ln median PBM intensity, better of two orientations
43 | B43 | 12.3 ln median PBM intensity, better of two orientations
